# Legend:
# Experiment in all cases: binding to purified HLA
# [1] = molecular target: HLA-DR6(13) (human)
# [2] = molecular target: DRB1*0701 (DR7)
# [3] = molecular target: DRB1*0301 (DR3w17)
# [4] = molecular target: DRB1*0401 (DR4w4)
# [5] = molecular target: DRB1*0101 (DR1) (human, UniProt P01903 26-254)
# [6] = molecular target: DQA1*0301/DQB1*0301 (DQ3.1)
# [7] = molecular target: DRB1*0802 (DR8w2)
# [8] = molecular target: DRB1*0404 (DR4w14)
# [9] = molecular target: DRB1*0901 (DR9)
# [10] = molecular target: DRB1*0405 (DR4w15)
# [11] = molecular target: DRB1*1501 (DR2w2β1) (human)
# [12] = molecular target: DQA1*0301/DQB1*0302 (DQ3.2)
# [13] = molecular target: DRB5*0101 (DR2w2β2)
# [14] = molecular target: DRB3*0101 (DR52a)
# [15] = molecular target: DRB1*1201 (DR5w12)
# [16] = molecular target: DRB1*1101 (DR5w11)
# [17] = molecular target: DRB4*0101 (DRw53)
# [18] = molecular target: DQA1*0501/DQB1*0201 (DQ2)
Binder,IC50 [1],IC50 [2],IC50 [3],IC50 [4],IC50 [5],IC50 [6],IC50 [7],IC50 [8],IC50 [9],IC50 [10],IC50 [11],IC50 [12],IC50 [13],IC50 [14],IC50 [15],IC50 [16],IC50 [17],IC50 [18]
"NGIEWAIANNMDVIN [B. amyloliquifaciens subtilisin BPN' Y217L epitope peptide, amino acids 109-123]",9.8 nM,,,,,,,,,,,,,,,,,
GTVAALNNSIGVLGV [BPN' Y217L .70],,154 nM,8740 nM,33 nM,6.5 nM,440 nM,1710 nM,5.7 nM,46 nM,166 nM,21 nM,2070 nM,15700 nM,2010 nM,80 nM,2380 nM,31 nM,670 nM
NGIEWAIANNMDVIN [BPN' Y217L .109],,58 nM,,30 nM,8.8 nM,2180 nM,2190 nM,166 nM,43 nM,37 nM,683 nM,80 nM,1020 nM,119 nM,1240 nM,3020 nM,1070 nM,97 nM
"SYPARYANAMAVGAT [B. lentus subtilisin epitope peptide, amino acids 160-174]",559 nM,,,,,,,,,,,,,,,,,
GSISYPARYANAMAV [B. lentus 157],,724 nM,16400 nM,4790 nM,1060 nM,6010 nM,> 16300 nM,7580 nM,1480 nM,6780 nM,865 nM,5010 nM,,> 9430 nM,,,> 9670 nM,6160 nM
SYPARYANAMAVGAT [B. lentus .160],,138 nM,,142 nM,13 nM,63 nM,2030 nM,5540 nM,164 nM,1350 nM,,1050 nM,1730 nM,6160 nM,,5550 nM,8260 nM,1300 nM
"GSISYPARYANAMAV [B. lentus subtilisin epitope peptide, amino acids 157-171]",2010 nM,,,,,,,,,,,,,,,,,

# From patent US20080220450A1 (published 2008)
